This note sets out measurements from publication PMC12205875, “CRY1–GAIP1 complex mediates blue light to hinder the repression of PIF5 on AGL5 to promote carotenoid biosynthesis in mango fruit”.

For data set [1], the target named is T1, MiGAIP1 (DELLA) (Mangifera indica, UniProt UPI001CFB1029 1-553).
T1 sequence: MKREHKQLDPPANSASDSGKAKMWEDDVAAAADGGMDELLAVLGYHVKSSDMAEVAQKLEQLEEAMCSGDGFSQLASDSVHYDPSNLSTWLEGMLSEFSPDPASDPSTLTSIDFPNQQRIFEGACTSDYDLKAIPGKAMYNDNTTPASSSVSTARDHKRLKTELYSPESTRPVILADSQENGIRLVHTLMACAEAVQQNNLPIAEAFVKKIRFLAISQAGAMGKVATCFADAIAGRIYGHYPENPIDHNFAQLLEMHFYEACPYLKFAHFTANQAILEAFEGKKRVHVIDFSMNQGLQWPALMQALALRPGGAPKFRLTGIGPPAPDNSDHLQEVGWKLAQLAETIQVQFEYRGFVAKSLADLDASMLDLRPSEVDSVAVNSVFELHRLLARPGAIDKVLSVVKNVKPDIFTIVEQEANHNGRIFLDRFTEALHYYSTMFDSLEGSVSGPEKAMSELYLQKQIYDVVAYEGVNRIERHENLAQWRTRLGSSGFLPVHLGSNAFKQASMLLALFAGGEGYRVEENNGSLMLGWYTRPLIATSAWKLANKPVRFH
As to the kind of experiment: EMSA; LightShift Chemiluminescent EMSA kit (Thermo) per manufacturer; buffer, salt, pH and temperature not stated. The settings on record: protein: recombinant; tags: GST (pGEX4T); label: 3' biotin; blunt.

The target of data set [2] is T2, MiPIF5 (Mangifera indica, UniProt UPI001CFAADE4 1-539).
T2 sequence: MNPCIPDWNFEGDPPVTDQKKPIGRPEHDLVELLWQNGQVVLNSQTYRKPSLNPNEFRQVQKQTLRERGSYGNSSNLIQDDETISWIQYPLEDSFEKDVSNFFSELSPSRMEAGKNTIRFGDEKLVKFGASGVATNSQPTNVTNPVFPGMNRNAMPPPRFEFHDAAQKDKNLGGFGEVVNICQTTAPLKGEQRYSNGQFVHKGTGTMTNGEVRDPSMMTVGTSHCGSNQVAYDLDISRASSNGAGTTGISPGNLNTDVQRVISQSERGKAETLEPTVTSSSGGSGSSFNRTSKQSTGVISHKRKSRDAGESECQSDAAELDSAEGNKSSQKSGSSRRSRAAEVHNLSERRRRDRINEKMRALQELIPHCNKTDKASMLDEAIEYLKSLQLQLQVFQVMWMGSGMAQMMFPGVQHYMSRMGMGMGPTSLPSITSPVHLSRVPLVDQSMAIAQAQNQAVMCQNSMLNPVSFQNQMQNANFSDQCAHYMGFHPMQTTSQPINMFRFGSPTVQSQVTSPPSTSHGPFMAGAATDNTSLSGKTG
Described as above. The settings on record: protein: recombinant; tags: GST (pGEX4T); chain copies: 2; label: 3' biotin; blunt.

B1: ProMiAGL5-Probe (MiGAIP1) (dsDNA)
DNA 1: TTTCAACAATCAAGAAATGAGAAAGGAAAGAAGAAAAAAGAAAGAAAAAAAAAAAAAGTGTCT
DNA 2: AGACACTTTTTTTTTTTTTCTTTCTTTTTTCTTCTTTCCTTTCTCATTTCTTGATTGTTGAAA
As for B1, the binding result in data set [1] is listed as “binds”.

B2: ProMiAGL5-Probe (MiPIF5) (dsDNA)
DNA 1: GAGCATCACATGGGAGTCTATTTTCACTTTGTAATTTGAAAAGGAAAGAGATATATAC
DNA 2: GTATATATCTCTTTCCTTTTCAAATTACAAAGTGAAAATAGACTCCCATGTGATGCTC
In the case of B2, the binding result in data set [2] is “binds”.
